Measured values taken from paper PMC3302767.

How the values were obtained:
[1] = molecular target: Plasmodium falciparum formin 1 FH2 domain with the lasso segment (Pf-Frm1-FH2) (P. falciparum); experiment: SEC-MALS; Superdex 200 10/300 GL, 200 µl of each formin at 1 mg/ml; 50 mM sodium phosphate pH 7.0, 50 mM NaCl, 1 mM DTT; monomer to dimer
[2] = molecular target: Plasmodium falciparum formin 1 FH1 and FH2 domains (Pf-Frm1-FH1FH2) (P. falciparum); experiment: as above

Row | Substance | stoichiometry N [1] | stoichiometry N [2]
1 | Plasmodium falciparum formin 1 FH2 domain with the lasso segment (Pf-Frm1-FH2) (domain or fragment) | 2 | –
2 | Plasmodium falciparum formin 1 FH1 and FH2 domains (Pf-Frm1-FH1FH2) (domain or fragment) | – | 2
